Reference: publication PMC8482512, “Aim32 is a dual-localized 2Fe-2S mitochondrial protein that functions in redox quality control” (The Journal of Biological Chemistry, 2021)

T1: Aim32 with a C-terminal FLAG tag (Aim32-FLAG) (S. cerevisiae, UniProt Q04689 1-311)
T1 construct: Aim32, S. cerevisiae, PCR-amplified from genomic DNA of strain GA74-1A; also called pAIM32-FLAG; pAIM32; source: S. cerevisiae Δaim32 strain transformed with [pAIM32-FLAG]; (GPD promoter), mitochondrial lysate; not shown: 3XFLAG, C-terminal, kept
T1 sequence (looked up): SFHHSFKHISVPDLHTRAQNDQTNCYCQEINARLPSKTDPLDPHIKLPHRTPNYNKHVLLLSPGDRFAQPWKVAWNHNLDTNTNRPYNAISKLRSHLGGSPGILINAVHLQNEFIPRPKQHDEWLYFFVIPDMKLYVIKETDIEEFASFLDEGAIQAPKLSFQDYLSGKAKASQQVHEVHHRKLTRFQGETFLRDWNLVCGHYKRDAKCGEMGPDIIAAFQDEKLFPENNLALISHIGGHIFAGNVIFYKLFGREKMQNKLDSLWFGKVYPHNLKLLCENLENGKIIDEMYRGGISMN


Tests used:
[1] = biological target: Osm1 with a C-terminal histidine tag (Osm1-His) (S. cerevisiae) (UniProt P21375); test: pull-down; mitochondria of His-tagged strains solubilized in 1% digitonin, 500 μg lysate incubated with Ni2+-agarose beads, washed, eluted, immunoblot; untagged WT strain as control
Osm1 with a C-terminal histidine tag (Osm1-His) (S. cerevisiae), sequence (P21375 33-501): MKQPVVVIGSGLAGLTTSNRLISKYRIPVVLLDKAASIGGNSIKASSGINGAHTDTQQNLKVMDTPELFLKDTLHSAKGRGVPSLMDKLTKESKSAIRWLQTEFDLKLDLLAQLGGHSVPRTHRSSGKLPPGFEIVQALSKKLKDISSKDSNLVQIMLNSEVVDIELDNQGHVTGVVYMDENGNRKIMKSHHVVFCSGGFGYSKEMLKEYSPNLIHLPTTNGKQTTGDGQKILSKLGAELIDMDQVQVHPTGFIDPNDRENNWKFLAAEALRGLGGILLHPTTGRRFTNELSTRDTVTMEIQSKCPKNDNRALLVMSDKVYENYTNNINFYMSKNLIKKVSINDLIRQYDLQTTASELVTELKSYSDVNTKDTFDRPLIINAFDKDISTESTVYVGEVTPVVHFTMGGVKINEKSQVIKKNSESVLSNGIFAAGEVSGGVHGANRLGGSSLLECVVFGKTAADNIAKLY

[2] = biological target: Erv1 with a C-terminal histidine tag (Erv1-His) (S. cerevisiae) (UniProt P27882); test: as above
Erv1 with a C-terminal histidine tag (Erv1-His) (S. cerevisiae), sequence (P27882 whole entry): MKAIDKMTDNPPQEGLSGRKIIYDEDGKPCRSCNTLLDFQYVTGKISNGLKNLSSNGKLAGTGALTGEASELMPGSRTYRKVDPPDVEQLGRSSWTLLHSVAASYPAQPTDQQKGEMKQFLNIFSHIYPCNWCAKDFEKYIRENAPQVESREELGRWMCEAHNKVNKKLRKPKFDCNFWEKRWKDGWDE

[3] = biological target: T1, Aim32 with a C-terminal FLAG tag …; test: co-IP; mitochondrial lysate of Δaim32 [pAIM32-FLAG], ANTI-FLAG M2 affinity gel (FLAG-resin), immunoblot with the indicated antibodies; conditions: partners not purified

Molecule	fraction copurified [1] [%]	fraction copurified [2] [%]	fraction copurified [3] [%]
Altered inheritance of mitochondria 32 (Aim32) (from UniProt Q04689 1-311) (natural protein)	5	10	
Tim17 (natural protein, UniProt P39515 1-158, looked up, Tim17, component of the TIM23 translocon, S. cerevisiae; source: endogenous, S. cerevisiae mitochondrial lysate) MSADHSRDPCPIVILNDFGGAFAMGAIGGVVWHGIKGFRNSPLGERGSGAMSAIKARAPVLGGNFGVWGGLFSTFDCAVKAVRKREDPWNAIIAGFFTGGALAVRGGWRHTRNSSITCACLLGVIEGVGLMFQRYAAWQAKPMAPPLPEAPSSQPLQA			~10
Tim23 (natural protein, UniProt P32897 1-222, looked up, Tim23, component of the TIM23 translocon, S. cerevisiae; source: endogenous, S. cerevisiae mitochondrial lysate) MSWLFGDKTPTDDANAAVGGQDTTKPKELSLKQSLGFEPNINNIISGPGGMHVDTARLHPLAGLDKGVEYLDLEEEQLSSLEGSQGLIPSRGWTDDLCYGTGAVYLLGLGIGGFSGMMQGLQNIPPNSPGKLQLNTVLNHITKRGPFLGNNAGILALSYNIINSTIDALRGKHDTAGSIGAGALTGALFKSSKGLKPMGYSSAMVAAACAVWCSVKKRLLEK			~10
Sod2 (enzyme, UniProt P00447 27-233, looked up, Sod2, matrix antioxidant (superoxide dismutase), S. cerevisiae; source: endogenous, S. cerevisiae mitochondrial lysate) KVTLPDLKWDFGALEPYISGQINELHYTKHHQTYVNGFNTAVDQFQELSDLLAKEPSPANARKMIAIQQNIKFHGGGFTNHCLFWENLAPESQGGGEPPTGALAKAIDEQFGSLDELIKLTNTKLAGVQGSGWAFIVKNLSNGGKLDVVQTYNQDTVTGPLVPLVAIDAWEHAYYLQYQNKKADYFKAIWNVVNWKEASRRFDAGKI			~10

Results, then the molecule that gave them:

fraction copurified [1] [%]	fraction copurified [2] [%]	fraction copurified [3] [%]	Molecule
		~10	Tim50 (natural protein, UniProt Q02776 44-476, looked up, Tim50, component of the TIM23 translocon, S. cerevisiae; source: endogenous, S. cerevisiae mitochondrial lysate) QKETKDDKPKSILTDDMLFKAGVDVDEKGQGKNEETSGEGGEDKNEPSSKSEKSRRKRQTSTDIKREKYANWFYIFSLSALTGTAIYMARDWEPQESEELKKDIDNGYTLSLMYKRFKARFNSMFTYFQEPPFPDLLPPPPPPPYQRPLTLVITLEDFLVHSEWSQKHGWRTAKRPGADYFLGYLSQYYEIVLFSSNYMMYSDKIAEKLDPIHAFVSYNLFKEHCVYKDGVHIKDLSKLNRDLSKVIIIDTDPNSYKLQPENAIPMEPWNGEADDKLVRLIPFLEYLATQQTKDVRPILNSFEDKKNLAEEFDHRVKKLKDKFYGDHKSGGNWAMTALGLGNSLGGSTKFPLDLIHEEGQKNYLMFMKMIEEEKEKIRIQQEQMGGQTFTLKDYVEGNLPSPEEQMKIQLEKQKEVDALFEEEKKKKKIAESK
		~10	Tim22 (natural protein, UniProt Q12328 1-207, looked up, Tim22, component of the TIM22 translocon, S. cerevisiae; source: endogenous, S. cerevisiae mitochondrial lysate) MVYTGFGLEQISPAQKKPYNELTPEEQGERGAEMIMNFMTSCPGKSVVSGVTGFALGGVLGLFMASMAYDTPLHTPTPANTAATATAGNIGVGGISRTVQQISDLPFRQQMKLQFTDMGKKSYSSAKNFGYIGMIYAGVECVIESLRAKNDIYNGVTAGFFTGAGLAYKAGPQAALMGGAGFAAFSAAIDLYMKSEDGRPPQNDFKE
